{"source": "patent US20100323397", "biological_target": "T1, wild type (WT) VirD2 protein, Agrobacterium tumefaciens str. C58 (UniProt P18592)", "T1 sequence": "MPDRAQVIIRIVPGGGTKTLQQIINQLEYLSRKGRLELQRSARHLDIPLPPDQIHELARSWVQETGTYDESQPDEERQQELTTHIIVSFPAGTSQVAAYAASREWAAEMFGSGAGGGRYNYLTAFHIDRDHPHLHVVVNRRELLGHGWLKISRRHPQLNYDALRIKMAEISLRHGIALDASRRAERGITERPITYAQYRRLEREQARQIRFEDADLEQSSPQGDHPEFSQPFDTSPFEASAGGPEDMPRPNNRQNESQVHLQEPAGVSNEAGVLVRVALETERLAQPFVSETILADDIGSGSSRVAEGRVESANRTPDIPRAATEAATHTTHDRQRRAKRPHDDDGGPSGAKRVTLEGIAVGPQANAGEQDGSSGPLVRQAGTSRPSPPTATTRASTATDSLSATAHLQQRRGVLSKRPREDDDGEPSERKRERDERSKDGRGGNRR", "data": [{"substance": "plant caspase (putative subtilisin-like (serine) protease, PSLP) from tobacco", "values": [{"measurement": "Western (immunoblotting) analysis of degradation by plant caspase", "result": "degradation of wild type (WT) VirD2 protein by plant caspase (lane 2)"}]}]}
